± gives the uncertainty stated by the source.
Test: self-splicing fitness, log relative to wild type (ln ratio); higher = more splicing; Tetrahymena group I intron in knt gene, E. coli kanamycin selection, DiMSum; sequences stand for … in CUCUCU…GGAGGGAAAAGUUAUCAGGCAUGCACCUGGUAGCUAGUCUUUAAACCAAUAGAUUGCAUCGGUUUAAAAGGCAAGACCGUCAAAUUGCGGGAAAGGGGUCAACAGCCGUUCAGUACCAAGUCUCAGGGGAAACUUUGAGAUGGCCUUGCAAAGGGUAUGGUAAUAAGCUGACGGACAUGGUCCUAACCACGCAGCCAAGUCCUAAGUCAACAGAUCUUCUGUUGAUAUGGAUGCAGUUCACAGACUAAAUGUCGGUCGGGGAAGAUGUAUUCUUCUCAUAAGAUAUAGUCGGACCUCUCCUUAAUGGGAGCUAGCGGAUGAAGUGAUGCAACACUGGAGCCGCUGGGAACUAAUUUGUAUGCGAAAGUAUAUUGAUUAGUUUUGGAGUACUCGUGGUCG
Method in brief: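 Library with all eight P1ex-region intron nucleotides randomised, intron inside the knt kanamycin-resistance gene on pET-22b(+), in E. coli BL21(DE3). Cells grew overnight at 37°C or 30°C on LB agar with or without 25 μg/mL kanamycin (plus 100 μg/mL carbenicillin, 50 μM IPTG, 0.2% rhamnose), in six replicate transformations. Pooled colonies were amplicon-sequenced on Illumina HiSeq 2500. DiMSum fitness is the error-weighted combination of wild-type-normalised replicate fold changes, kanamycin versus none.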

Sequence	self-splicing fitness (ln) (30 °C)	self-splicing fitness (ln) (37 °C)
UUAAAGCAAUAUUACGUAAC	-2.67 ± 0.17	-1.62 ± 0.2
UUAAAGCAAUAUUACGUCAU	-1.94 ± 0.18	-0.671 ± 0.17
UUAAAGCAAUAUUACGUCGG	-0.114 ± 0.074	0.43 ± 0.091
UUAAAGCAAUAUUACGUCGU	-1.76 ± 0.11	-0.737 ± 0.12
UUAAAGCAAUAUUACGUGCA	-0.0172 ± 0.1	0.542 ± 0.13
UUAAAGCAAUAUUACGUGGU	-3.26 ± 0.12	-2.73 ± 0.15
UUAAAGCAAUAUUACGUGUA	-0.993 ± 0.066	0.0738 ± 0.08
UUAAAGCAAUAUUACGUUUC	-3.92 ± 0.39	-1.18 ± 0.31
UUACAGCAAUAUUACGAACG	-0.834 ± 0.1	-0.112 ± 0.13
UUACAGCAAUAUUACGAAGA	-1.25 ± 0.15	-0.992 ± 0.15
UUACAGCAAUAUUACGAAUU	-3.13 ± 0.22	-3.1 ± 0.24
UUACAGCAAUAUUACGACAC	-3.53 ± 0.43	–
UUACAGCAAUAUUACGACCU	-1.38 ± 0.18	-1.25 ± 0.18
UUACAGCAAUAUUACGACGG	-0.531 ± 0.097	0.113 ± 0.13
UUACAGCAAUAUUACGAGAU	-2.96 ± 0.25	-1.69 ± 0.24
UUACAGCAAUAUUACGAGCG	-0.688 ± 0.088	-0.631 ± 0.096
UUACAGCAAUAUUACGAGGC	–	-1.85 ± 0.3
UUACAGCAAUAUUACGAUAA	-0.0512 ± 0.1	-0.232 ± 0.11
UUACAGCAAUAUUACGAUAU	-1.83 ± 0.11	-0.951 ± 0.14
UUACAGCAAUAUUACGCAAC	-3.55 ± 0.33	-2.32 ± 0.27
UUACAGCAAUAUUACGCCAA	-1.35 ± 0.17	-1.01 ± 0.17
UUACAGCAAUAUUACGCUCA	-0.512 ± 0.12	-0.224 ± 0.13
UUACAGCAAUAUUACGGAAG	-3 ± 0.13	-2.05 ± 0.14
UUACAGCAAUAUUACGGACG	-0.683 ± 0.079	-0.00562 ± 0.096
UUACAGCAAUAUUACGGAGC	-3.42 ± 0.38	-1.79 ± 0.35

Sequence	self-splicing fitness (ln) (30 °C)	self-splicing fitness (ln) (37 °C)
UUACAGCAAUAUUACGGAUU	-3.81 ± 0.24	-2.08 ± 0.16
UUACAGCAAUAUUACGGCAA	-0.112 ± 0.11	-0.272 ± 0.12
UUACAGCAAUAUUACGGCGU	-2.6 ± 0.14	-2.57 ± 0.21
UUACAGCAAUAUUACGGUCU	-0.96 ± 0.075	-0.357 ± 0.088
UUACAGCAAUAUUACGUAUG	-0.997 ± 0.054	-0.53 ± 0.068
UUACAGCAAUAUUACGUGGC	-2.87 ± 0.26	-2.92 ± 0.34
UUACAGCAAUAUUACGUGUA	-2.48 ± 0.084	-1.48 ± 0.081
UUACAGCAAUAUUACGUUCA	-0.535 ± 0.11	0.086 ± 0.12
UUACAGCAAUAUUACGUUCU	-1.6 ± 0.13	-1.01 ± 0.11
UUAGAGCAAUAUUACGAACG	-0.913 ± 0.22	-0.303 ± 0.19
UUAGAGCAAUAUUACGAAGU	-3.03 ± 0.21	-1.98 ± 0.28
UUAGAGCAAUAUUACGACGU	-2.39 ± 0.17	-0.776 ± 0.21
UUAGAGCAAUAUUACGAGAG	-0.212 ± 0.24	-1.7 ± 0.24
UUAGAGCAAUAUUACGAUCG	-1.29 ± 0.15	-1.67 ± 0.16
UUAGAGCAAUAUUACGCACC	-3.79 ± 0.33	-2.04 ± 0.4
UUAGAGCAAUAUUACGCAUU	-3.24 ± 0.38	–
UUAGAGCAAUAUUACGCGAC	-3.78 ± 0.37	–
UUAGAGCAAUAUUACGCGCU	-1.84 ± 0.41	-1.11 ± 0.47
UUAGAGCAAUAUUACGCGGA	-1.29 ± 0.1	-0.00507 ± 0.11
UUAGAGCAAUAUUACGCGGU	-2.71 ± 0.25	-2.81 ± 0.48
UUAGAGCAAUAUUACGCUGA	-2.6 ± 0.21	-0.656 ± 0.28
UUAGAGCAAUAUUACGCUUG	-0.891 ± 0.11	0.00726 ± 0.16
UUAGAGCAAUAUUACGGAGC	-3.62 ± 0.29	-2.31 ± 0.22
UUAGAGCAAUAUUACGGCAA	-0.627 ± 0.12	-0.584 ± 0.18
UUAGAGCAAUAUUACGGCUC	-3.52 ± 0.35	-1.68 ± 0.28

Sequence	self-splicing fitness (ln) (30 °C)	self-splicing fitness (ln) (37 °C)
UUAGAGCAAUAUUACGGGCA	-2.25 ± 0.12	-1.54 ± 0.18
UUAGAGCAAUAUUACGGGUC	-3.07 ± 0.18	-1.69 ± 0.22
UUAGAGCAAUAUUACGGUCU	-3.05 ± 0.41	-2.66 ± 0.48
UUAGAGCAAUAUUACGUAAU	-2.77 ± 0.31	-1.69 ± 0.36
UUAGAGCAAUAUUACGUGCA	-2.16 ± 0.15	-0.652 ± 0.16
UUAGAGCAAUAUUACGUGCG	-1.28 ± 0.1	-0.87 ± 0.14
UUAGAGCAAUAUUACGUGGG	-3.41 ± 0.22	-1.92 ± 0.17
UUAGAGCAAUAUUACGUGUU	-4.76 ± 0.32	-2.53 ± 0.28
UUAGAGCAAUAUUACGUUAG	-0.978 ± 0.13	0.238 ± 0.21
UUAUAGCAAUAUUACGACGC	-2.63 ± 0.45	–
UUAUAGCAAUAUUACGAGAA	–	-1.51 ± 0.38
UUAUAGCAAUAUUACGAGGC	-3.95 ± 0.37	-3.71 ± 0.42
UUAUAGCAAUAUUACGAGUU	–	-1.96 ± 0.2
UUAUAGCAAUAUUACGAUAC	–	-1.53 ± 0.27
UUAUAGCAAUAUUACGAUAU	-1.97 ± 0.13	-0.578 ± 0.17
UUAUAGCAAUAUUACGCCAU	-3.93 ± 0.31	-3.15 ± 0.28
UUAUAGCAAUAUUACGCGAC	-2.5 ± 0.19	-1.98 ± 0.2
UUAUAGCAAUAUUACGCGAG	-0.842 ± 0.11	-0.334 ± 0.12
UUAUAGCAAUAUUACGCGUU	-3.58 ± 0.16	-2.16 ± 0.17
UUAUAGCAAUAUUACGGAGC	–	-2.95 ± 0.43
UUAUAGCAAUAUUACGGCAC	-2.82 ± 0.36	-2.51 ± 0.49
UUAUAGCAAUAUUACGGCAG	-0.689 ± 0.094	-0.0118 ± 0.13
UUAUAGCAAUAUUACGGCCU	-1.48 ± 0.18	-1.09 ± 0.23
UUAUAGCAAUAUUACGGGGG	-3.15 ± 0.4	–
UUAUAGCAAUAUUACGGUCU	-3.22 ± 0.25	-1.28 ± 0.22

Sequence	self-splicing fitness (ln) (30 °C)	self-splicing fitness (ln) (37 °C)
UUAUAGCAAUAUUACGGUGA	-0.606 ± 0.12	-0.405 ± 0.14
UUAUAGCAAUAUUACGGUUA	-0.941 ± 0.08	-0.0464 ± 0.084
UUAUAGCAAUAUUACGGUUG	-1.32 ± 0.12	-0.629 ± 0.15
UUAUAGCAAUAUUACGUCCG	-1.64 ± 0.17	-1 ± 0.17
UUAUAGCAAUAUUACGUGGU	-3.55 ± 0.35	-3.15 ± 0.35
UUAUAGCAAUAUUACGUUGC	-3.27 ± 0.36	-3.07 ± 0.4
UUAUAGCAAUAUUACGUUGG	-2.91 ± 0.22	-1.86 ± 0.21
UUAUAGCAAUAUUACGUUUU	-3.61 ± 0.25	-2.64 ± 0.28
UUCAAGCAAUAUUACGAAAU	-3.5 ± 0.25	-1.43 ± 0.19
UUCAAGCAAUAUUACGAGUG	-0.827 ± 0.06	-0.257 ± 0.077
UUCAAGCAAUAUUACGAUGG	-2.38 ± 0.19	-1.95 ± 0.17
UUCAAGCAAUAUUACGCGCU	-1.69 ± 0.12	-1.44 ± 0.13
UUCAAGCAAUAUUACGCUAC	-3 ± 0.25	-1.52 ± 0.26
UUCAAGCAAUAUUACGCUGC	-2.71 ± 0.3	-1.92 ± 0.23
UUCAAGCAAUAUUACGCUGG	-2.29 ± 0.13	-3.05 ± 0.24
UUCAAGCAAUAUUACGCUUA	-1.32 ± 0.096	-1.2 ± 0.096
UUCAAGCAAUAUUACGCUUG	-2.15 ± 0.35	-1.01 ± 0.26
UUCAAGCAAUAUUACGCUUU	-5.08 ± 0.41	-2.37 ± 0.28
UUCAAGCAAUAUUACGUACG	-1.19 ± 0.13	-0.699 ± 0.21
UUCAAGCAAUAUUACGUAGG	-1.53 ± 0.08	-0.995 ± 0.13
UUCAAGCAAUAUUACGUAUG	-3.21 ± 0.22	-1.64 ± 0.17
UUCAAGCAAUAUUACGUCAG	-3.43 ± 0.2	-1.23 ± 0.14
UUCAAGCAAUAUUACGUCAU	-2.97 ± 0.15	-2.59 ± 0.13

Source: the supplement of paper PMC7877785
